± gives the uncertainty stated by the source.
B1: Peroxisome proliferator-activated receptor delta, residues 71 to 145; numbered along this chain, Q03181 (parent)
chain: NMECRVCGDKASGFHYGVHACEGCKGFFRRTIRMKLEYEKCERSCKIQKKNRNKCQYCRFQKCLALGMSHNAIRF
B2: Arginine-glutamic acid dipeptide repeats protein, residues 502 to 543; numbered along this chain, Q9P2R6 (parent)
chain: LKGYACRHCFTTTSKDWHHGGRENILLCTDCRIHFKKYGELP

Variants of: B1
Test: abundance fitness (aPCA) (normalised: wild type 0, dead -1); higher = more abundant; growth selection in yeast, the domain comes from the species named
Conditions: Homo sapiens

Abundance fitness, by site and new letter:
F75: Y 0.026 ± 0.072; V 0.015 ± 0.062; W 0.176 ± 0.12

Variants of: B2
Test: as above
Conditions: Homo sapiens

Abundance fitness: each site, then its substitutions
C6: R -0.996 ± 0.052; K -0.886 ± 0.17; H -0.601 ± 0.075; M -1.1 ± 0.08; T -0.902 ± 0.08; L -1 ± 0.072; G -0.878 ± 0.048
T13: H -0.045 ± 0.079; C -0.164 ± 0.058; R 0.012 ± 0.036; K 0.018 ± 0.052; E 0.014 ± 0.047; M -0.185 ± 0.058; W -0.31 ± 0.044; Y -0.223 ± 0.17; Q -0.039 ± 0.058
H34: P -0.805 ± 0.21; C 0.05 ± 0.069; T -0.204 ± 0.047; V -0.3 ± 0.038; Y -0.102 ± 0.088; E -0.242 ± 0.037
L41: G -0.276 ± 0.036; I -0.46 ± 0.092; Q -0.327 ± 0.078; E -0.301 ± 0.039; P -0.253 ± 0.041; N -0.366 ± 0.055; W -0.302 ± 0.038; F 0.271 ± 0.33; Y -0.22 ± 0.097; K -0.309 ± 0.044; D -0.245 ± 0.072; M -0.126 ± 0.057
G39: T -0.291 ± 0.05; I -0.726 ± 0.17; P -0.478 ± 0.061; Y -0.259 ± 0.047; A -0.108 ± 0.033; S -0.171 ± 0.041; M -0.328 ± 0.065; W -0.301 ± 0.038
P42: A -0.367 ± 0.048
T12: A -0.234 ± 0.038; G -0.312 ± 0.032; R -0.141 ± 0.034; D -0.141 ± 0.055; N -0.251 ± 0.13; V -0.343 ± 0.033; E -0.175 ± 0.051; K -0.135 ± 0.048; S -0.205 ± 0.044; Q -0.159 ± 0.049; C -0.304 ± 0.043
D30: L -0.29 ± 0.051; T 0.068 ± 0.072; I -0.404 ± 0.066; E -0.069 ± 0.042; C -0.248 ± 0.12; M -0.157 ± 0.06
K15: T -0.002 ± 0.049; S -0.162 ± 0.034; C -0.313 ± 0.045; Y -0.229 ± 0.09; P -0.095 ± 0.049; H -0.041 ± 0.06; Q -0.049 ± 0.048; G -0.174 ± 0.033; M -0.064 ± 0.095; D -0.099 ± 0.1
G3: K -0.146 ± 0.065; H -0.058 ± 0.065; P -0.189 ± 0.036; F -0.247 ± 0.084
A5: F 0.144 ± 0.059; D -0.022 ± 0.072; T 0.04 ± 0.043; Y -0.136 ± 0.088; G 0.012 ± 0.035; Q 0.039 ± 0.04; N -0.116 ± 0.17; S 0.007 ± 0.041; W 0.014 ± 0.037; L -0.018 ± 0.036; K -0.104 ± 0.055; M -0.046 ± 0.058
W17: R -0.276 ± 0.033; M -0.195 ± 0.038; P -0.149 ± 0.053; T -0.227 ± 0.053; G -0.154 ± 0.03
I33: R 0.026 ± 0.031; H 0.017 ± 0.085; Y -0.01 ± 0.063; V 0.068 ± 0.037; M -0.007 ± 0.044; D 0.117 ± 0.054; K -0.011 ± 0.04; T 0.042 ± 0.053
N24: F -0.242 ± 0.062; T -0.239 ± 0.046; S 0 ± 0.035; V -0.297 ± 0.048; M -0.107 ± 0.042; K -0.157 ± 0.059; H -0.094 ± 0.067
G20: M -0.205 ± 0.042; W -0.141 ± 0.051; A -0.16 ± 0.036; V -0.11 ± 0.035; H -0.203 ± 0.048; D 0.097 ± 0.067; L -0.32 ± 0.056; S -0.212 ± 0.043; K -0.379 ± 0.06; C -0.091 ± 0.057
H19: C -0.033 ± 0.083; K -0.047 ± 0.061; A -0.048 ± 0.035; Y -0.246 ± 0.1; E 0.02 ± 0.04; W -0.204 ± 0.044; G -0.073 ± 0.033
L1: I 0.149 ± 0.1; M 0.076 ± 0.038; G 0.043 ± 0.037; A 0.158 ± 0.23; W -0.187 ± 0.057; Q -0.245 ± 0.16
C31: E -0.742 ± 0.05; P -1.07 ± 0.15; Q -1.14 ± 0.19; H -0.733 ± 0.091; W -1.33 ± 0.19; K -0.732 ± 0.092
C9: A -0.425 ± 0.043; Y -0.426 ± 0.087; D -0.547 ± 0.061; P -0.494 ± 0.051; S -0.392 ± 0.073
I25: G -0.264 ± 0.039; V -0.015 ± 0.038; L -0.05 ± 0.036; E -0.048 ± 0.036; Q -0.099 ± 0.047; N -0.298 ± 0.061; D -0.16 ± 0.059
K36: G 0.079 ± 0.033; P -0.363 ± 0.054; L -0.068 ± 0.042; W -0.147 ± 0.052; N 0.248 ± 0.092
H8: P -0.836 ± 0.11; T -0.428 ± 0.053; Q -0.307 ± 0.046; I -0.292 ± 0.064; M -0.347 ± 0.045; W -0.044 ± 0.044; F -0.387 ± 0.065
L27: W -0.259 ± 0.035; F -0.444 ± 0.07; R -0.554 ± 0.035; T -0.294 ± 0.059; K -0.511 ± 0.045; A -0.405 ± 0.036; H -0.086 ± 0.15; M -0.209 ± 0.044
S14: K -0.066 ± 0.12; P -0.361 ± 0.048; F -0.516 ± 0.19; C -0.315 ± 0.068; V -0.476 ± 0.047; L -0.536 ± 0.038; T -0.226 ± 0.049; M -0.455 ± 0.098; E -0.223 ± 0.043; D -0.073 ± 0.11; Y -0.473 ± 0.09
R22: L -0.081 ± 0.043; H -0.221 ± 0.31; Q 0.029 ± 0.053; N 0.008 ± 0.082; G -0.048 ± 0.033; F -0.058 ± 0.1; K 0.071 ± 0.05; D -0.026 ± 0.041; S -0.055 ± 0.037
R32: F 0.021 ± 0.061; H -0.037 ± 0.12; M -0.017 ± 0.072; W 0.053 ± 0.043; Q -0.035 ± 0.045; N -0.063 ± 0.071; A -0.011 ± 0.038; P -0.612 ± 0.072; S -0.013 ± 0.035; K -0.137 ± 0.046
K2: M -0.09 ± 0.049; G -0.12 ± 0.041; Q -0.107 ± 0.041; L -0.196 ± 0.049; A -0.116 ± 0.056; T -0.367 ± 0.43; S -0.049 ± 0.048; P -0.357 ± 0.057; E -0.038 ± 0.05
H18: Y -0.089 ± 0.1; I -0.07 ± 0.047; R -0.193 ± 0.044; T -0.029 ± 0.041; K 0.055 ± 0.046; Q 0.09 ± 0.064; A 0.09 ± 0.044; P -0.333 ± 0.045
T11: C -0.219 ± 0.046; S -0.083 ± 0.035; M -0.413 ± 0.045; Q -0.278 ± 0.046; F -0.561 ± 0.43; P -0.51 ± 0.066; N -0.168 ± 0.066; W -0.589 ± 0.046; L -0.375 ± 0.043; R -0.236 ± 0.033; A -0.136 ± 0.035
Y38: W -0.074 ± 0.049; G -0.185 ± 0.033; M -0.117 ± 0.06; E 0.018 ± 0.041; L -0.123 ± 0.04; I -0.298 ± 0.1; H -0.111 ± 0.26; P -0.215 ± 0.056; N 0.083 ± 0.087; F -0.069 ± 0.062
D16: F -0.48 ± 0.081; P -0.701 ± 0.08; L -0.442 ± 0.037; N -0.277 ± 0.064; C -0.633 ± 0.47; R -0.451 ± 0.038; A -0.358 ± 0.038; Q -0.449 ± 0.062; V -0.412 ± 0.036
R7: D -0.142 ± 0.097; L -0.067 ± 0.035; V -0.098 ± 0.034; G 0.029 ± 0.031; A 0.074 ± 0.036; P -0.293 ± 0.043; W -0.195 ± 0.039; N -0.115 ± 0.059
E40: T -0.078 ± 0.036; W -0.265 ± 0.038; A -0.066 ± 0.034; S -0.077 ± 0.037; G -0.136 ± 0.033; N -0.116 ± 0.056; M -0.176 ± 0.045; H -0.11 ± 0.073
C28: A -0.873 ± 0.052; G -0.798 ± 0.046; M -1.31 ± 0.17; V -0.851 ± 0.058; K -0.841 ± 0.11; S -0.789 ± 0.058
F35: S -0.187 ± 0.038; A -0.089 ± 0.039; H -0.015 ± 0.068; C -0.191 ± 0.06; G -0.287 ± 0.031; K -0.091 ± 0.089; N -0.245 ± 0.14; P -0.422 ± 0.064; Q -0.058 ± 0.044
Y4: L -0.109 ± 0.039; W -0.22 ± 0.04; S -0.075 ± 0.038; M 0.046 ± 0.044; V -0.181 ± 0.039; R -0.155 ± 0.036; E -0.135 ± 0.04; A -0.198 ± 0.039; C -0.117 ± 0.053; G -0.207 ± 0.032
L26: F -0.354 ± 0.11; Y -0.403 ± 0.11; W -0.188 ± 0.038; P -0.21 ± 0.063; V -0.18 ± 0.038; H -0.386 ± 0.31; A -0.311 ± 0.036
G21: W -0.493 ± 0.055; E -0.154 ± 0.046; H -0.044 ± 0.47; N -0.515 ± 0.14; Y -0.534 ± 0.26; R -0.369 ± 0.038; S -0.056 ± 0.041; Q -0.222 ± 0.047
E23: Q -0.038 ± 0.043; N -0.099 ± 0.061; G -0.113 ± 0.038; L -0.225 ± 0.035; R -0.255 ± 0.036; I -0.322 ± 0.058; V -0.338 ± 0.046; H -0.185 ± 0.25
K37: N -0.09 ± 0.068; C -0.168 ± 0.061; E -0.04 ± 0.047; W -0.135 ± 0.044; V -0.149 ± 0.036; L -0.194 ± 0.041; Q -0.027 ± 0.046; G -0.184 ± 0.039; D -0.013 ± 0.049
T29: W -0.042 ± 0.043; D -0.151 ± 0.091; G -0.13 ± 0.033; V -0.154 ± 0.039; R -0.125 ± 0.033; C -0.096 ± 0.054
F10: M -0.083 ± 0.048; W -0.054 ± 0.036; S 0.015 ± 0.048; R -0.014 ± 0.032; T -0.099 ± 0.045; Y -0.101 ± 0.063; A 0.054 ± 0.032; C -0.036 ± 0.051

Reference: the Human Domainome abundance scans (Beltran et al. 2025)
